Assay results from IntAct's records for PubMed 15143060.

Target: gga1_human GGA1 (UniProt Q9UJY5)
Sequence (Q9UJY5 whole entry): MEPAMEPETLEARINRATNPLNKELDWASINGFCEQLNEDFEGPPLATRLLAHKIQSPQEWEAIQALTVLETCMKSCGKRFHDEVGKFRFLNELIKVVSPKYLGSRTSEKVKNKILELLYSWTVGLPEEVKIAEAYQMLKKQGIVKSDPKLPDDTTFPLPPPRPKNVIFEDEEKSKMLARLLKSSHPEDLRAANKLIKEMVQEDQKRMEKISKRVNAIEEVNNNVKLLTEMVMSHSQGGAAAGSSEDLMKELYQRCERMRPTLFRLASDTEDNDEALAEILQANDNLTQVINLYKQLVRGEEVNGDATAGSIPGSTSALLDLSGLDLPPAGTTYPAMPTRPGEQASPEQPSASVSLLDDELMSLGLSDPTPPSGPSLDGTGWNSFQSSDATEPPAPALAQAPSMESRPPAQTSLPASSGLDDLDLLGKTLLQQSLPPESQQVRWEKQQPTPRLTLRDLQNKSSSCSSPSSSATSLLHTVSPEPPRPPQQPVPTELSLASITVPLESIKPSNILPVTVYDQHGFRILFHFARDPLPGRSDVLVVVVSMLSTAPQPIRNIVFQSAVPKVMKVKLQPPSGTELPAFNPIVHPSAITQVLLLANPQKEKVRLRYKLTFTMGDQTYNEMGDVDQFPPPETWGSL

Question: With “ADP-ribosylation factor 1 (Homo sapiens), P84077 T32N” as the substance, how does the “effect of a mutation on the interaction” value read?
Answer: Its value is “decreasing interaction”.
